Source: WO2021190480A1 (dated 2021)

Molecular target: T1, His-tagged human TROP-2 protein (TROP-2-His), Sino Biological cat# 10428-H08H (human, UniProt P09758 27-274)
T1 construct: also called TROP-2His protein; human TROP-2His antigen; not shown: His tag
T1 sequence (looked up): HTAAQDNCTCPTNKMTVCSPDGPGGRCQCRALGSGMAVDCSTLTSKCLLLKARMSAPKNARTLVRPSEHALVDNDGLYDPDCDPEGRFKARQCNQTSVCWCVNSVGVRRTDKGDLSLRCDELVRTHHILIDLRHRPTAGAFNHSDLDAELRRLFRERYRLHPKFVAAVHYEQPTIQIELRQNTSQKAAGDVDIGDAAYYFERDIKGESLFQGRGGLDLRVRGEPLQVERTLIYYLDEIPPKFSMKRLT
Experiment: indirect ELISA, TROP-2-His coated at 1 ug/ml

B1: murine monoclonal antibody M1 (antibody, V domains shown)
VH: QVQLQQPGAELVRPGASVKLSCRASGYTFTNYWMNWVKQRPEQGLEWIGRIDPNDSETHYNQKFKDRAILTVDKASNTAYMQLSGLTSEDSAVHYCARSGFGSTYWFFDVWGAGTTVTVSS
VL: DIVMTQSHKFMSTSVGDRVSITCKASQDVSTAVAWYQQKPGQSPKLLIYSASYRYTGVPDRFAGSGYGTDFTFTISSVQTEDLTVYHCQQHYSTPLTFGPGTRLELK
In the case of B1, the EC50 is reported as 0.56 nM.
